Results on 77 sequences are retold here after the supplement of paper PMC7877785.

± gives the uncertainty stated by the source.

The nature of this data set: self-splicing fitness, log relative to wild type (ln ratio); higher = more splicing; Tetrahymena group I intron in knt gene, E. coli kanamycin selection, DiMSum; sequences stand for … in CUCUCU…GGAGGGAAAAGUUAUCAGGCAUGCACCUGGUAGCUAGUCUUUAAACCAAUAGAUUGCAUCGGUUUAAAAGGCAAGACCGUCAAAUUGCGGGAAAGGGGUCAACAGCCGUUCAGUACCAAGUCUCAGGGGAAACUUUGAGAUGGCCUUGCAAAGGGUAUGGUAAUAAGCUGACGGACAUGGUCCUAACCACGCAGCCAAGUCCUAAGUCAACAGAUCUUCUGUUGAUAUGGAUGCAGUUCACAGACUAAAUGUCGGUCGGGGAAGAUGUAUUCUUCUCAUAAGAUAUAGUCGGACCUCUCCUUAAUGGGAGCUAGCGGAUGAAGUGAUGCAACACUGGAGCCGCUGGGAACUAAUUUGUAUGCGAAAGUAUAUUGAUUAGUUUUGGAGUACUCGUGGUCG
In a few lines:
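A randomised library covering all eight P1ex-region intron nucleotides was built with the intron in the knt kanamycin-resistance gene on pET-22b(+) and held in E. coli BL21(DE3). Cells were grown overnight at 37°C or 30°C on LB agar, with or without 25 μg/mL kanamycin, plus 100 μg/mL carbenicillin, 50 μM IPTG and 0.2% rhamnose, and pooled colonies were amplicon-sequenced on an Illumina HiSeq 2500. DiMSum fitness is the error-weighted combination of wild-type-normalised replicate fold changes, kanamycin versus none.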

Consider AAUAAGCAAUAUUACGAGGA, for which the “self-splicing fitness (ln)” value by setting is: (30 °C) -3.05 ± 0.43; (37 °C) -1.94 ± 0.33.
Turning to ACUUAGCAAUAUUACGCUCA, the “self-splicing fitness (ln)” value (30 °C) was -0.842 ± 0.13 and the “self-splicing fitness (ln)” value (37 °C) was -0.196 ± 0.15.
In the case of ACAGAGCAAUAUUACGACGG, the “self-splicing fitness (ln)” value is -2.78 ± 0.24 (30 °C) and -1.65 ± 0.27 (37 °C).
In the case of GGAUAGCAAUAUUACGGUAU, the “self-splicing fitness (ln)” value runs as follows: (30 °C) -1.48 ± 0.084; (37 °C) -0.924 ± 0.09.
Turning to UACUAGCAAUAUUACGAGUU, the “self-splicing fitness (ln)” value by setting is: (30 °C) -2.16 ± 0.11; (37 °C) -0.685 ± 0.1.
For UCAUAGCAAUAUUACGGGGU the same measures were -4.08 ± 0.27 and -1.67 ± 0.18.
As for GGUGAGCAAUAUUACGUGUU, the “self-splicing fitness (ln)” value (37 °C) is -1.87 ± 0.27.
In the case of AGAUAGCAAUAUUACGGUAG, the “self-splicing fitness (ln)” value reads like this: (30 °C) -3.93 ± 0.37; (37 °C) -1.69 ± 0.21.
As to CGAAAGCAAUAUUACGGGAC, the “self-splicing fitness (ln)” value (37 °C) is -2.59 ± 0.32.
GCCGAGCAAUAUUACGCAUU: the “self-splicing fitness (ln)” value was -2.73 ± 0.14 (30 °C) and -0.759 ± 0.13 (37 °C).
For AGACAGCAAUAUUACGGCCG the same measures were -1.26 ± 0.078 and -0.403 ± 0.12.
On to AGUAAGCAAUAUUACGUAAU, for which the “self-splicing fitness (ln)” value reads like this: (30 °C) -3.15 ± 0.16; (37 °C) -2.2 ± 0.17.
For CUAAAGCAAUAUUACGGCCU, the “self-splicing fitness (ln)” value runs as follows: (30 °C) -3.01 ± 0.15; (37 °C) -2.5 ± 0.28.
Taken in the same sequence, the figures for GAGAAGCAAUAUUACGAUGG were -2.74 ± 0.16 and -1.69 ± 0.18.
CAAUAGCAAUAUUACGUUAC: the “self-splicing fitness (ln)” value (37 °C) is -3.23 ± 0.39.
For the sequence GAAUAGCAAUAUUACGCAAG, the “self-splicing fitness (ln)” value is -2.44 ± 0.17 (30 °C) and -1.54 ± 0.15 (37 °C).
Taken in the same sequence, the figures for UUUGAGCAAUAUUACGCGUU were -2.4 ± 0.18 and -2.86 ± 0.42.
UACUAGCAAUAUUACGGGCU: the “self-splicing fitness (ln)” value is, setting by setting: (30 °C) -3.52 ± 0.28; (37 °C) -2.87 ± 0.34.
For ACUUAGCAAUAUUACGGCCA the same measures were -0.83 ± 0.13 and -0.409 ± 0.19.
With GGCUAGCAAUAUUACGACUG, the “self-splicing fitness (ln)” value (30 °C) was -1.54 ± 0.16 and the “self-splicing fitness (ln)” value (37 °C) was -0.524 ± 0.22.
For CUUAAGCAAUAUUACGGUAG, the “self-splicing fitness (ln)” value is, setting by setting: (30 °C) -1.58 ± 0.12; (37 °C) -0.559 ± 0.12.
As for ACGUAGCAAUAUUACGCGAC, the “self-splicing fitness (ln)” value was -3.16 ± 0.21 (30 °C) and -1.9 ± 0.22 (37 °C).
On to AGUGAGCAAUAUUACGGUAU, for which the “self-splicing fitness (ln)” value is -3.9 ± 0.23 (30 °C) and -2.31 ± 0.24 (37 °C).
CACAAGCAAUAUUACGCGUA: the “self-splicing fitness (ln)” value by setting is: (30 °C) -1.64 ± 0.072; (37 °C) -0.625 ± 0.067.
Taken in the same sequence, the figures for CUCCAGCAAUAUUACGGUCU were -4 ± 0.23 and -2.31 ± 0.2.
As for UAAGAGCAAUAUUACGGUGA, the “self-splicing fitness (ln)” value runs as follows: (30 °C) -3.83 ± 0.23; (37 °C) -2.14 ± 0.16.
Taken in the same sequence, the figures for GAAAAGCAAUAUUACGGCUG were -0.13 ± 0.091 and 0.108 ± 0.14.
Taken in the same sequence, the figures for AUCAAGCAAUAUUACGGCUG were -0.736 ± 0.071 and -0.0189 ± 0.11.
Taken in the same sequence, the figures for GGGCAGCAAUAUUACGAUCU were -0.541 ± 0.092 and 0.124 ± 0.12.
Regarding UAACAGCAAUAUUACGAGUG, the “self-splicing fitness (ln)” value runs as follows: (30 °C) -0.621 ± 0.038; (37 °C) -0.34 ± 0.056.
Consider UGAGAGCAAUAUUACGGCCA, for which the “self-splicing fitness (ln)” value (30 °C) was -1.63 ± 0.25.
As to AGCGAGCAAUAUUACGAUCG, the “self-splicing fitness (ln)” value is -1.79 ± 0.25 (30 °C) and -1.63 ± 0.3 (37 °C).
CCCCAGCAAUAUUACGCUUU: the “self-splicing fitness (ln)” value runs as follows: (30 °C) -4.4 ± 0.25; (37 °C) -3.36 ± 0.21.
Taken in the same sequence, the figures for GACUAGCAAUAUUACGAAAU were -1.07 ± 0.16 and 0.651 ± 0.26.
Taken in the same sequence, the figures for ACCUAGCAAUAUUACGAUGC were -1.22 ± 0.078 and -0.172 ± 0.081.
For CAACAGCAAUAUUACGUGGC the same measures were -3.17 ± 0.12 and -2.81 ± 0.16.
On to GUGGAGCAAUAUUACGUCUA, for which the “self-splicing fitness (ln)” value (30 °C) is -3.74 ± 0.47.
Consider GAGUAGCAAUAUUACGAACU, for which the “self-splicing fitness (ln)” value is -0.979 ± 0.14 (30 °C) and -0.323 ± 0.23 (37 °C).
As to ACCUAGCAAUAUUACGCGCC, the “self-splicing fitness (ln)” value was -0.396 ± 0.09 (30 °C) and -0.477 ± 0.12 (37 °C).
On to UCCUAGCAAUAUUACGUACA, for which the “self-splicing fitness (ln)” value is -2.45 ± 0.27 (30 °C) and -0.735 ± 0.16 (37 °C).
For AUAAAGCAAUAUUACGGCUU the same measures were -0.708 ± 0.1 and -0.569 ± 0.12.
For GUUAAGCAAUAUUACGCGCG the same measures were -0.983 ± 0.09 and 0.0623 ± 0.14.
Taken in the same sequence, the figures for UCCCAGCAAUAUUACGUGAG were -1.52 ± 0.08 and -0.669 ± 0.083.
With UGACAGCAAUAUUACGGCGA, the “self-splicing fitness (ln)” value (30 °C) is -0.625 ± 0.085 and the “self-splicing fitness (ln)” value (37 °C) was -0.382 ± 0.092.
With AUAGAGCAAUAUUACGUGCU, the “self-splicing fitness (ln)” value (30 °C) is -1.24 ± 0.25.
In the case of UUCCAGCAAUAUUACGGAUC, the “self-splicing fitness (ln)” value was -3.83 ± 0.35 (30 °C) and -1.75 ± 0.16 (37 °C).
GCGGAGCAAUAUUACGUAGC: the “self-splicing fitness (ln)” value runs as follows: (30 °C) -1.91 ± 0.28; (37 °C) -2.38 ± 0.41.
As for UGCUAGCAAUAUUACGUAUU, the “self-splicing fitness (ln)” value reads like this: (30 °C) -3.06 ± 0.18; (37 °C) -1.72 ± 0.24.
As for AAGAAGCAAUAUUACGAGCG, the “self-splicing fitness (ln)” value reads like this: (30 °C) -0.646 ± 0.14; (37 °C) -0.754 ± 0.2.
Taken in the same sequence, the figures for GUAUAGCAAUAUUACGAGAG were -1.56 ± 0.22 and -2.9 ± 0.34.
Taken in the same sequence, the figures for GGAAAGCAAUAUUACGAUUC were -1.84 ± 0.16 and -0.276 ± 0.16.
Regarding CUCCAGCAAUAUUACGCAGC, the “self-splicing fitness (ln)” value was -2.51 ± 0.15 (30 °C) and -2.25 ± 0.49 (37 °C).
For CCCUAGCAAUAUUACGUUCU the same measures were -4.33 ± 0.23 and -3.61 ± 0.19.
Take UCCAAGCAAUAUUACGGUUA: the “self-splicing fitness (ln)” value was -0.451 ± 0.066 (30 °C) and 0.0448 ± 0.068 (37 °C).
Regarding AAGUAGCAAUAUUACGAAGG, the “self-splicing fitness (ln)” value was -2.75 ± 0.24 (30 °C) and -3.26 ± 0.47 (37 °C).
AAUGAGCAAUAUUACGCUAG: the “self-splicing fitness (ln)” value (37 °C) was -1.93 ± 0.36.
As for CACCAGCAAUAUUACGAGCA, the “self-splicing fitness (ln)” value by setting is: (30 °C) -3.54 ± 0.16; (37 °C) -1.55 ± 0.13.
As to UAUUAGCAAUAUUACGUUGC, the “self-splicing fitness (ln)” value is -3.57 ± 0.31 (30 °C) and -2.59 ± 0.25 (37 °C).
For GUGCAGCAAUAUUACGUCAG the same measures were -3.02 ± 0.13 and -1.83 ± 0.11.
For AUACAGCAAUAUUACGGAUG the same measures were -2.7 ± 0.2 and -2.05 ± 0.14.
For AAGUAGCAAUAUUACGAGGA the same measures were -2.04 ± 0.32 and -2.12 ± 0.34.
In the case of GACUAGCAAUAUUACGAGAU, the “self-splicing fitness (ln)” value by setting is: (30 °C) -2.93 ± 0.19; (37 °C) -1.57 ± 0.21.
For GAUUAGCAAUAUUACGUCUA, the “self-splicing fitness (ln)” value is, setting by setting: (30 °C) -1.14 ± 0.095; (37 °C) -0.229 ± 0.085.
For the sequence AGAGAGCAAUAUUACGUACC, the “self-splicing fitness (ln)” value is -1.69 ± 0.28 (30 °C) and -0.0438 ± 0.38 (37 °C).
Taken in the same sequence, the figures for CCAAAGCAAUAUUACGAGAA were -3.52 ± 0.44 and -3 ± 0.35.
Taken in the same sequence, the figures for AAGAAGCAAUAUUACGACAC were -0.918 ± 0.12 and -0.625 ± 0.14.
Taken in the same sequence, the figures for UGACAGCAAUAUUACGAUGU were -4.14 ± 0.17 and -2.28 ± 0.14.
As for GUGGAGCAAUAUUACGGUAG, the “self-splicing fitness (ln)” value reads like this: (30 °C) -1.7 ± 0.16; (37 °C) -1.41 ± 0.31.
Consider AUGGAGCAAUAUUACGUUAA, for which the “self-splicing fitness (ln)” value is -2.58 ± 0.22 (30 °C) and -1.59 ± 0.23 (37 °C).
For UCCGAGCAAUAUUACGGACC the same measures were -2.53 ± 0.28 and -1.47 ± 0.36.
Taken in the same sequence, the figures for AAAGAGCAAUAUUACGUUAA were -3.16 ± 0.25 and -2.28 ± 0.28.
Regarding UUUGAGCAAUAUUACGACCG, the “self-splicing fitness (ln)” value (37 °C) is -1.19 ± 0.4.
Turning to UAUGAGCAAUAUUACGCAUU, the “self-splicing fitness (ln)” value was -3.57 ± 0.25 (30 °C) and -2.15 ± 0.22 (37 °C).
For CACCAGCAAUAUUACGGCCG the same measures were 0.194 ± 0.066 and 0.251 ± 0.087.
Taken in the same sequence, the figures for CCCGAGCAAUAUUACGGAGC were -1.75 ± 0.16 and -2.77 ± 0.36.
Take AGUUAGCAAUAUUACGGACG: the “self-splicing fitness (ln)” value reads like this: (30 °C) -0.568 ± 0.16; (37 °C) 0.616 ± 0.18.
In the case of UGCCAGCAAUAUUACGACGC, the “self-splicing fitness (ln)” value reads like this: (30 °C) -3.03 ± 0.22; (37 °C) -1.68 ± 0.25.
